Results as given in the nanobody polyreactivity screen of Harvey et al. (2022).

Assay: yeast display, Sf9 membrane polyspecificity reagent, FACS + sequencing; frameworks hold sequencing errors
Outline: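 In a synthetic yeast display library (Saccharomyces cerevisiae BJ5465), nanobody expression was induced with galactose for 36–48 hours. FACS gates were set low and high (top ~1%) using anti-HA fluorescence for expression and streptavidin fluorescence for binding of the Sf9 membrane reagent. Each polyreactivity label is drawn from the gate of origin.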

Sequence: QVQLVESGGGLVQAGGSLRLSCAASGSILEPYAMGWYRQAPGKERELVAAISSSGGSTRYADSVKGRFTISRDNAKNTVYLQMNSLKPEDTAVYYCAARFRAKFNYWGQGTQVTVSS
- polyreactivity (PSR sort gate): low polyreactivity

Sequence: QVQLVESGGGLVQAGGSLRLSCAASGGTFAFNAMGWYRQAPGKERELVATIRYSGGSTYADSVKGRFTISRDNAKNTVYLQMNSLKPEDTAVYYCAADVIYWFSGEYDYWGQGTQVTVSS
- polyreactivity (PSR sort gate): low polyreactivity

Sequence: QVQLVESGGGLVQAGGSLRLSCAASGSIFFRYAMGWYRPAPGKERELVAAISSSGGSTYYADSVKGRFTISRDNAKNTVYLQMNSLKPEDTAVYYCAARYYSKYYYSPFDYWGQGTQVTVSS
- polyreactivity (PSR sort gate): high polyreactivity

Sequence: QVQLVESGGGLVQAGGSLRLSSAASGSTFSLNAMGWYRQAPGKERELVASISSGDSTNYADSVKGRFTISLDNAKNTVYLQMNSLKPEDTAVYYCAADGWVLSLARGYYTYDYWGLGTQVTVSS
- polyreactivity (PSR sort gate): low polyreactivity

Sequence: QVQLVESGGGLVQAGGILRLSCPASGIIIPLYAMGWYIQAPGKERELVATINIGGSTNYADSVKGRFTISRDNAKNTVYLQMNSLKPEDTAVYYCAADVDSLQRYESWGQGTQVTVSS
- polyreactivity (PSR sort gate): low polyreactivity

Sequence: QVQLVESGGGLVQAGGSLRLSCAASGIIFTTNMGWYRQAPGKERELVATIRVNGGRTYYADSVKGRFTISRDNAQNTVYLQMNSLKPEDTAVYYCAARYSAGAQRYGYWGQGTQVTVSS
- polyreactivity (PSR sort gate): high polyreactivity

Sequence: QVQLVESGGGLVQAGGSLRLSCAASGGIYYYAMGWYRPAPGKERELVSAISSGGGNTNYADSVKGRFTISRDNAKNTVYLQMISLKPEDTAVYYCYADRAVVLSTTVWGEYDYWGQGTQVNVSS
- polyreactivity (PSR sort gate): low polyreactivity

Sequence: QVQLVESGGGLVQAGGSLRLSCAASGIIFNSYAMGWYRQAPGKERELVAAISRSGTSTYYADSVKGRFTISRDNAKNTVYLQMNSLKPEDTAVYYCNVARGYYSYSSRIDYYWGQGTQVTVSS
- polyreactivity (PSR sort gate): high polyreactivity

Sequence: QVQLVESRGGLVQAGGSLRLSCAASRSTFGVNAMGWYRQAPGKERELVARISSGVRTYYADSVKGRFTISRDNAKNTVYLQMNSMIPEDTAVYYCAAVYFRGVDRAFLSYSYYYWGQGTQVTVSS
- polyreactivity (PSR sort gate): high polyreactivity

Sequence: QVQLVESGRGIVQAGGSLRLSCAASGRTFYVYTMGWYRQAPGKERELVAAITSGGSTNYADSVKGRFTISRDNAKNTLYLQMNSLKPEDTAVYYCAARVSTVFKRYYYWGQGTQVTVSS
- polyreactivity (PSR sort gate): high polyreactivity

Sequence: QVQLVESGGGLVQAGGSLRLSCAASGSIFYRNVMGWYRQAPGKERELVATISRGGTSNYADSVKGRFTISRDNAKNTVYLQMNSLKPEDTAVYYCAAPIGDVYVGKGYDSWGQGTQVTVSS
- polyreactivity (PSR sort gate): low polyreactivity

Sequence: QVQLVESGGGLVQAGGSLRLSCAASGFTFTWYAMGWYRPAPGKERELVAAISSGGGRTYYADSVKGRFTISRDNAKNTVYLQMNSLKPEDTAVYYCNKVSSFGYYYWGQGTQVTVSS
- polyreactivity (PSR sort gate): high polyreactivity

Sequence: QVQLVESGGGLVQAGGRLRLSCAASGSTLYAYGMGWYRQAPGKERELVAAIRTGGSTYYADSVKGRFTISRDNAKITVYLQMNSLKPEDTAVYYCAADHGYQYGYWGQGTQVTVSS
- polyreactivity (PSR sort gate): low polyreactivity

Sequence: QVQLVESGGGLVQAGGSLRLSCAASGSIFAQYAMGWYRQAPGKERELVATISSVGSTNYADSVKGRFTISRDNAKNTVYLQMNSLKPEDTAVYYCNAVRSGWGYFYGLNYWGQGTQVTVSS
- polyreactivity (PSR sort gate): low polyreactivity

Sequence: QVQLVESGGGLVQAGGSLRLSCASSGRTFARNVMGWYRQAPGKERELVAAIRGSGGSTYYADSLKGRFTISRDNGKNTVYLQMNSLKTEDTAVYYCAADSSYTKRHSPTKLHFDYWGQGTQVTVSS
- polyreactivity (PSR sort gate): high polyreactivity

Sequence: QVQLVESGGGLVQAGGSLRLCCAASGFTFSYYAMGGYRQAPGKERELVAAISRSGGRTYYADSVKGRFTISRDHAKNTVYVQMNSLKPEDTAVYSCAGVYFGSIFVLEYDYWGQGTQVTVSS
- polyreactivity (PSR sort gate): high polyreactivity

Sequence: QVQLVESGGGLVQAGGSLRLSCAASGSTFLWYAMGWYRQAPGKERELVATISGSGGSTYYADSVKGRFTISRDNAKNTVYLQMNSLKPEDTAVYYCARDTLGGTSLGDYWGQGTQVTVSS
- polyreactivity (PSR sort gate): high polyreactivity

Sequence: QVQLVESGGGLVQAGGSLRLSCAASGRIFYVNAMGWYRQAPGKERELVAAIRSAGGTYYADSVKGRFTISRDNAKNTVYLEMNWLNPEDSAVYYCNADASYREYRLYLIEMDYLGQGTQVTVSS
- polyreactivity (PSR sort gate): high polyreactivity

Sequence: QVQLVESGGGLVQAGGSLRLSCAASGYIFGYYVMGWYRQAPGKERELVAAITGRGGSTYYADSVKGRFTISRDNAKNTVSLQMNSLKPEDTAVYYCAADATTYPYDPWHLYEIWEYYYWGQGTQVTVSS
- polyreactivity (PSR sort gate): low polyreactivity

Sequence: QVQLVESGGGLVQAGGSLRLSCAASGRTFSTYAMGWYRQAPGKERELVATIRGSGSSTYYADSVKGRFTISRDNAKNTVYLQMNSLKPEDTAVYYCAKDNNRWRYLRYGSWGQGTQVTVSS
- polyreactivity (PSR sort gate): high polyreactivity

Sequence: QVQLVESGGGLVQAGGSLRLSCAASGYIFAWYAMGWYRQAPGIVRELVAAISRSGGSTYYADSVKGRFTISRDNAKHTDYLQMNSLKPEDTAVYYCNAYSAYDEYDYWGQGTQVTVSS
- polyreactivity (PSR sort gate): high polyreactivity

Sequence: QVQLVESGAGLVQAGGSLRLSCAASGLTFFYYAMGWYRQAPGKERELVAAIDNDGGTYYADSVKGRFTISRDNAKNTVYLLMNSLKPEDTAVYYCNADYQTVDDPYGYDYWGQGTQVTVSS
- polyreactivity (PSR sort gate): low polyreactivity

Sequence: QVQLVESGGGLVQAGGSLRLSCAASGRIFRYNTMGWYRQAHGKERELVAAIDRGSSTNYADSVKGRFTISRDNAKNTVYLQMNSLKPEDTAVYYCAARVFRPYGSLYDYWGQGTQVTVSS
- polyreactivity (PSR sort gate): high polyreactivity

Sequence: QVQLVESGGRLVQAGGSLRLSCAASGRIFGAYAMGWYRQAPGKERELVAAINSGGSTFYADSVKGRFTISRDNAKNTVYLQMNRLKPEDTAVYYCAKRSYDYRRYSWGQGTQVTVSS
- polyreactivity (PSR sort gate): high polyreactivity

Sequence: QVQLVDSGGGLVQAGGSLRVSCAASGRIFSGHAMGWYRQAPGKVRELVAAITSGGDDTYYADSVKGRFTISRDNAKNTVYLQMNSLKPEDTAVYYCAARYLGYTYYYWGQGTQVSVSS
- polyreactivity (PSR sort gate): low polyreactivity

Sequence: QVQLVESGGGLVQAGGSLRLSCGASGGIFIFYAMGWYRHAPGKERELVAAISNVSSTNYADSVKGRFTISRDNAKHTVYLEMNSLKPEDTAVYYCNAVGVPSEYYSWGQGTQVTVSS
- polyreactivity (PSR sort gate): low polyreactivity

Sequence: QVQLVESGGGLVQAGGSLRLSCAASGLTFYNYAMGWYIQAPGKERELVATITSSGARTYYADSVKGRFTISRDNAKNTVYLQMNSLTPEDTAVYYCAKQAYDQSPYNYWGQGTQVTVSS
- polyreactivity (PSR sort gate): high polyreactivity

Sequence: QVQLVESGGGIVQAGGSLRLSCAASGNIFDDNAMGWYRQAPGKDRELVAAITSRGTRTYYADSVKGRFTISRDNAKNTVYLQMNSLKPEDTAVYYCAAGSYYWGQGSQVTVSS
- polyreactivity (PSR sort gate): high polyreactivity

Sequence: QVQLVESGGGLVQAGGSLRLSCAASGRTFSEYAMGWYRQAPGKERELVAAITENGGSTYYADSVKGRFTISRDIAKNTVYLQMNSLKPEDTAVYYCAAETWADWYSEFYWGQGTLVTVSS
- polyreactivity (PSR sort gate): high polyreactivity

Sequence: QVQLVESCGGLVQAGGSLRLSCAASGFIIGYYAMGWYRQAPGKERELVAAISSTGGSTYYADSVKGRFTISRDNAKNNVYLQMNSLKPEDTAVYYCAKRFAYYRYHPGYDYWGQGTQVTVSS
- polyreactivity (PSR sort gate): high polyreactivity

Sequence: QVHVVESGGGLVQAGVSLLLSCAASGRTFYRNAMGWYRQAPGKERELVAAISSRGGSTYYADSVKGRFTISRDNAKNTVYLQMNSLKPEDTAVYYCAANYGYGGDYDYWVQGTQVTVSS
- polyreactivity (PSR sort gate): high polyreactivity

Sequence: QLQLVESGGGLVQAGGSLRLSCAASGFTFSYYAKGWYRQAPGKERELVAAISINGGRTYYADSVKGRFTISRDNAKNTVYLQMNSLKPEDTAVYYCNAVSYAYTVRMDYWGQGTQVTVSS
- polyreactivity (PSR sort gate): high polyreactivity

Sequence: QVQLVESGGGLVQAGGSLRLSCAASGRTFYPNTMGWYRQAPGKERELVAAIRSSGGSTYYADSVKGRFTISRDNAKKTVYLQMNSLKPEDTAVYYCAAKGRSSYFYWFDYWGQGTQVTVSS
- polyreactivity (PSR sort gate): high polyreactivity

Sequence: QVQLVESGGGLVQAGGSLRLSCAASGLILHKYAMGWYRQAPGKERELVASINSGANTNYADSVKGRFTISRDNAKNTVYLQMNSLKPEDTAVYYCNASPFTVRYYKYEYWGQGTQVTVSS
- polyreactivity (PSR sort gate): low polyreactivity

Sequence: QVQLVESGGGLVQAGGSLRLSCAASGSTFVPYAMGWYRQAPGKERELVAAISSAGSTNYADSVKGRFTISRDNAKNTVYLQMNSLKPEDTAVYYCARDIQDTYVFDYWGQGTQVTVSS
- polyreactivity (PSR sort gate): low polyreactivity

Sequence: QVQLVESGGGLVQAGGSLRLSCAASGRTFSKYAMGWYRQAPGKERELVAAISSTGGSTYYADSVKGRFTISRDNAKNTVYLQMNSLIPEDTAVYYCATEVYWFHSRAYYYWGQGSQVTVSS
- polyreactivity (PSR sort gate): high polyreactivity

Sequence: QVQLVESGGGLVQAGGSLRLSCAASGRIFGTNAMGWYRQAPGKESELVATITRGGGNTYYADSVKGRFTISRDNAKNTVYLQMISLKPEDTAVYYCGAKFHRFAWYSHYDYWGQGTQVTVSS
- polyreactivity (PSR sort gate): low polyreactivity

Sequence: QVQLVESGGGLVQAGGSLRLSCAASGSTFGSNAIGWYRQAPGKERELVAAISKRGGSTYYADSVKGRFTISRDNAKNTVYLQMNSLKPEDTAVYYCAVAYTPSRRYSAYSADRMDYWGQGTQVTVSS
- polyreactivity (PSR sort gate): high polyreactivity

Sequence: QVQLVESGGGLVQAGGSLRLSCAASGRNFYYYAMGWYRQAPGKEREFVARNRSSGGSTYADSVKGRFTISRDNAKNTVYLQMNSLKPEDTAVYYCARDGYTAVEYDYWGQGTQVTVSS
- polyreactivity (PSR sort gate): low polyreactivity

Sequence: QVKLVESGGGLVQAGASLRLSVAASGNIFSVNTIGTYRQAPGKERELVAAITRRSGRTYYADSVKGRFTISRDNAKNTVFLQMNSLNPEDTAVYYCAASWRGASVIRFDYWGQGTQVTVSS
- polyreactivity (PSR sort gate): high polyreactivity

Sequence: QVQLVESGGGLVQAGGSLRLSCAASGSIFSQYAMGWYRQAPGKERELVAAIRTGGRTHYADSVKGRFTISRDNAKKTVYLQMNSLKPEDTAVYYCAAQARYYWGTTYEYWGQGTQVTVSS
- polyreactivity (PSR sort gate): high polyreactivity

Sequence: QVQLVESGGGLVQAGGILRLSCAASGRIFQPYAMGWYRQAPGKERELVAAISRGGTTYYADSVKGRFTISRDNAKNTVYLQMNSLKTEDTAVYYCAAPSYYRYDYWGQGTQVTVSS
- polyreactivity (PSR sort gate): high polyreactivity

Sequence: QVQLVESGGGLVQAGGSLRISCAASGSTFWNAMGWYRQAPGKERELVAAIRLSGGSTYYADSVKGRFTISRDNAKNTVYLQMNSLKPEDTAVYYCNSDVTFGYWEYDYWGQGTQVTVSS
- polyreactivity (PSR sort gate): low polyreactivity
